The record followed here is US20180171024A1 (ADICET BIO, published 2018).

Test [1] concerns the target T1, HLA-A2/MAGE-A4 230-239 complex on cells (human).
T1 construct: whole, on cells; also called MAGE-A4 peptide; HLA-A2+/MAGE-A4+ cells
Put plainly: flow cytometry, peptide-loaded T2 cells (10^-5 M). (Flow cytometry measures light scatter and fluorescence of single cells or particles in a stream.)

For test [2], the target named is T2, HLA-A2/MART1(26) on T2 cells (human).
T2 construct: whole, on cells
Put plainly: flow cytometry, T2 cells loaded with MART1 peptide.

The target in test [3] is T1, HLA-A2/MAGE-A4 230-239 complex on cells. Briefly: flow cytometry, T2 cells loaded with 10^-4 M peptide.
In test [4] the target is T2, HLA-A2/MART1(26) on T2 cells. Put plainly: flow cytometry, peptide-loaded T2 cells (10^-5 M).
Test [5] addresses T3, single-chain recombinant HLA-A2/WT1 126-134 complex (human).
T3 construct: also called scHLA-A2/WT1; MHC-WT1 peptide complex
Briefly: SPR, B47B6 IgG captured via anti-mouse IgG, analyte scHLA-A2/WT1.
Protocol: Purified IgGs were immobilized indirectly to the SPR sensor chip with anti-mouse. Analyte was purified recombinant single-chain HLA-A2/WT1 complexes generated by in vitro refolding of E. coli expressed scHLA-A2 complexes.
Immobilization of IgG TCR-like antibody was performed on a GLM (General Layer Medium) chip (Bio-Rad Laboratories, Hercules, Calif., USA) at 25° C. in the vertical orientation and the continuous running buffer was PBST (10 mM Na-phosphate, 150 mM NaCl, and 0.005% Tween 20, pH 7.4). Five channels were activated with 50 μl of a mixture of 0.04 M N-ethyl-N′-(3-dimethylaminopropyl) carbodiimide (EDC) and 0.01 M sulfo-N-hydroxysuccinimide (Sulfo-NHS) at a flow rate of 30 μl/min. The anti-mouse or human IgG/NeutrAvidin was diluted in 10 mM sodium acetate buffer pH 4.5 to a final concentration of 25 μg/ml and 150 μl were injected followed by an injection of 150 μl of 1 M ethanolamine-HCl pH 8.5. The IgG TCRL antibody/purified biotinylated single-chain recombinant HLA-A2/Tyrosinase/WT1/MAGE-A4/MAGE-A9/PAP complex ligand was diluted in PBST to 5-10 μg/ml and 90 μl were injected in the vertical orientation with a flow rate of 30 μl/min. The sixth channel remained empty to serve as a reference. […] All binding sensorgrams were collected, processed and analyzed using the integrated ProteOn Manager (Bio-Rad Laboratories, Hercules, USA) software. […]

The target in test [6] is T3, single-chain recombinant HLA-A2/WT1 …. Put plainly: SPR (ProteOn), IgG captured via anti-mouse IgG, scHLA-A2/WT1 as analyte.
Protocol: (§1) Immobilization of IgG TCR-like antibody was performed on a GLM (General Layer Medium) chip (Bio-Rad Laboratories, Hercules, Calif., USA) at 25° C. in the vertical orientation and the continuous running buffer was PBST (10 mM Na-phosphate, 150 mM NaCl, and 0.005% Tween 20, pH 7.4). Five channels were activated with 50 μl of a mixture of 0.04 M N-ethyl-N′-(3-dimethylaminopropyl) carbodiimide (EDC) and 0.01 M sulfo-N-hydroxysuccinimide (Sulfo-NHS) at a flow rate of 30 μl/min. The anti-mouse or human IgG/NeutrAvidin was diluted in 10 mM sodium acetate buffer pH 4.5 to a final concentration of 25 μg/ml and 150 μl were injected followed by an injection of 150 μl of 1 M ethanolamine-HCl pH 8.5. The IgG TCRL antibody/purified biotinylated single-chain recombinant HLA-A2/Tyrosinase/WT1/MAGE-A4/MAGE-A9/PAP complex ligand was diluted in PBST to 5-10 μg/ml and 90 μl were injected in the vertical orientation with a flow rate of 30 μl/min. The sixth channel remained empty to serve as a reference. […] Running buffer was injected simultaneously in the sixth channel for double referencing to correct for loss of the captured antibodies from the chip sensor surface during the experiment. All binding sensorgrams were collected, processed and analyzed using the integrated ProteOn Manager (Bio-Rad Laboratories, Hercules, USA) software. […]
Test [7] deals with T4, single-chain recombinant HLA-A2/MAGE-A4 230-239 complex (human).
T4 construct: also called scHLA-A2/MAGE-A4
Put plainly: SPR (ProteOn); text: IgG captured via anti-mouse IgG, scHLA-A2/MAGE-A4 as analyte (FIG. 54 legend: complex on NeutrAvidin, Fab as analyte).

The next test has as its target T5, MAGE-A4-A3.
T5 construct: also called HLA-A2/MAGE-A4-A3 on T2 cells
Put plainly: alanine scan, flow cytometry, peptide-loaded T2 cells (10^-5 M), antibody 10 µg/ml.

For a further test, the target named is T6, MAGE-A4-A8.
T6 construct: also called HLA-A2/MAGE-A4-A8 on T2 cells
Described as above.

A further test has as its target T7, MAGE-A4-A10.
T7 construct: also called HLA-A2/MAGE-A4-A10 on T2 cells
The test is described as above.

The next test has as its target T8, MAGE-A4-A9.
T8 construct: also called HLA-A2/MAGE-A4-A9 on T2 cells
The test is described as above.

A further test addresses T9, MAGE-A4-A1.
T9 construct: also called HLA-A2/MAGE-A4-A1 on T2 cells
The test is described as above.

Test [8] concerns the target T10, HLA-A2/MAGE-A4-A5 on T2 cells (human).
T10 construct: whole, on cells
Put plainly: flow cytometry (MFI), T2 cells loaded with Ala-mutated peptide.

The target of test [9] is T11, HLA-A2/MAGE-A4-A2 on T2 cells (human).
T11 construct: whole, on cells
The test is described as above.

The target in test [10] is T12, HLA-A2/MAGE-A4-A4 on T2 cells (human).
T12 construct: whole, on cells
The description is as above.

For test [11], the target named is T13, HLA-A2/MAGE-A4-A7 on T2 cells (human).
T13 construct: whole, on cells
Described as above.

For test [12], the target named is T14, HLA-A2/MAGE-A4-A6 on T2 cells (human).
T14 construct: whole, on cells
The test is described as above.

The target of test [13] is T15, single-chain recombinant HLA-A2/Tyrosinase369-377 complex (human).
T15 construct: also called scHLA-A2/Tyrosinase; HLA-A2/TyrD369-377
Briefly: SPR (ProteOn), IgG captured via anti-mouse IgG, scHLA-A2/Tyrosinase as analyte; apparent affinity.
Protocol: as §1

Test [14] has as its target T15, single-chain recombinant …. Briefly: SPR, IgG captured by anti-mouse IgG, analyte scHLA-A2/Tyrosinase (EM3-TyrD). On the technique in general: Surface plasmon resonance follows binding to a sensor surface in real time, without labels.
Protocol: as §1
Test [15] deals with T1, HLA-A2/MAGE-A4 230-239 complex on cells. Briefly: flow cytometry, peptide-loaded T2 cells (10^-5 M). The source holds these as a separate data set.
Another test deals with T16, PAP112-A9 (Homo sapiens).
T16 construct: cell surface;cell surface complex; also called PAP A9; HLA-A2/PAP A9 on T2 cells
Put plainly: alanine scan, flow cytometry, peptide-loaded T2 cells (10^-5 M), antibody 10 µg/ml.

The next test addresses T17, PAP112-A1.
T17 construct: also called PAP A1; HLA-A2/PAP A1 on T2 cells
The description is as above.

Protocol for MAGE-A4-A10: (§2) FIG. 55: Epitope specificity determination by Alanine scanning mutagenesis. The mutant MAGE-A4 peptides with alanine substitutions at positions 1, 2, 3, 4, 5, 6, 7, 8 and 9 were synthesized. […] The native and mutant MAGE-A4 peptides were loaded onto T2 cells APCs at a concentration of 10⁻⁵ M for 12 hrs at 37° C. […] MFI values for cells loaded with mutant and wild type peptides were compared. The relative effect of each Ala substitution was expressed as percentage of the binding to native wild-type peptide.
Protocol for MAGE-A4-A3: as §2
Protocol for MAGE-A4-A8: as §2
Protocol for MAGE-A4-A9: as §2

B1: 905-2-D7 TCR-like antibody (IgG) (antibody, V domains shown)
VH: QVQLKESGPGLVAPSQSLSITCTVSGFSLTSYGVHWVRQPPGKGLEWLGVIWAGGTTNYNSALMSRLSISRDNSKSQVFLEMNSLQTDDTAIYYCARDGHFHFDFWGQGTTLTVSS
VL: DIQMTQSPASLSVSVGETVTITCRASDIIYSNLAWYQQKQGKSPQLLVYAATNLAAGVPSRFSGSGSGTQYSLKINSLQSEDFGTYYCQHFWGSSISFGSGTKLEIKR
notes: also called Tyr D7
Regarding B1, the binding result in [1] and in test [2] was “no binding (tested: 10 µg/ml)” throughout.

B2: B47B6 TCR-like antibody (IgG) (antibody, V domains shown)
VH: EVQLVESGGGLVKPGGSLKLSCAASGFVFSSYDMSWVRQAQEKRLEWVAYMSSGGGTYYPDTVKGRFTISRDNAKNTLHLQMSSLKSEDTAMYYCARHDEITNFDYWGQGTTLTVSS
VL: DIVLTQSPATLSVSPGDSVSLSCRASQSISNSLHWYQQKSHESPRLLIKYASQSISGIPSRFSGSGSGTDFTLSINSVETEDFGMYFCQQSYSWPLTFGAGSKLELKR
notes: also called WT1 B47B6
In the case of B2, the values for the binding result in [3] and in test [4] were “no binding” and “no binding (tested: 10 µg/ml)”, respectively. For the same molecule, the values for the Kd in test [5] and in test [6] were 4.37 nM and 4.4 nM, respectively.

B3: C106B9 TCR-like antibody (IgG) (antibody, V domains shown)
VH: QVQLQQSGGEVMKPGASVKLSCKATGYTFTGYWIEWIKQRPGHGLEWIGEILPGSGGTNYNEKFKGKATFTAHTSSNTAYMQLSSLTTEDSAIYYCARDSNSFTYWGQGTLVTVSS
VL: QIVLTQSPAIMSASPGEKVTITCSVSSSVDYIHWFQQKPGTSPKFWIYSTSILASGVPARFSGSGSGTSYSLTISRMEAEDAATYYCQQRSSYPPTFGSGTKLEIKR
notes: also called MAGE-A4 C106B9
Regarding B3, the Kd in [7] worked out at 8.8 nM. In addition, the “% of MAGE-A4 binding” value with MAGE-A4-A3 worked out at 1%; with MAGE-A4-A8 it was 168%; in the test with MAGE-A4-A10 it was 4%; with MAGE-A4-A9, 79%; with MAGE-A4-A1, 106%. Moreover, the “percent decrease in binding vs wild-type peptide” value stood at 90% in [8]; 33% in [9]; 90% in [10]; 90% in test [11]; 90% in [12].

B4: 906-11-D11 TCR-like antibody (IgG) (antibody, V domains shown)
VH: not shown
VL: DIQMTQSPSSLSASLGGKVTITCKASQDIHNYIAWYQHKPVKGPRLLIHYTSTLQPGTPSRFSGSGSGRDYSFSISNLEPEDIATYYCLQYDNLWTFGGGTKLEIKR
notes: also called Tyr D11
Turning to B4, the Kd in test [13] was 4.1 nM; in [14], 4.14 nM. Also, the binding result in [1] and in [2] was “no binding (tested: 10 µg/ml)” each time.

B5: D10A3 TCR-like antibody (IgG) (antibody, V domains shown)
VH: EVQLQQFGTELVKPGASVKISCKASGYTFTDYNMDWVKQSHGKSLEWIGDINPNYDTTTYNQKFKGKATLTVDKSSSTAYMELRSLTSEDTAVFYCARRNYGNYVGFDFWGQGTTLTVSS
VL: NIVLTQTPKFLLVSAGDRVSITCKASQRVNNDVAWYQQKPGQSPKLLIYYASNRYTGVPDRFTGSGYGTDFTFTISTVQAEDLAVYFCQQDYSSPFTFGSGTKLEIKR
notes: also called PAP D10A3
As to B5, the binding result in test [15] was “no binding (tested: 10 µg/ml)”. In addition, the results for the “% of PAP112 binding” value with PAP112-A9 and with PAP112-A1 were 1% and 83%, respectively.
